Substitutions are numbered along the chain they refer to.

The target of experiment [1] is T1, human B7H3 (CD276) on the cell surface (human, UniProt Q5ZPR3 29-534).
T1 construct: B7H3 on A375 and other B7H3-positive or transfected cells
T1 sequence: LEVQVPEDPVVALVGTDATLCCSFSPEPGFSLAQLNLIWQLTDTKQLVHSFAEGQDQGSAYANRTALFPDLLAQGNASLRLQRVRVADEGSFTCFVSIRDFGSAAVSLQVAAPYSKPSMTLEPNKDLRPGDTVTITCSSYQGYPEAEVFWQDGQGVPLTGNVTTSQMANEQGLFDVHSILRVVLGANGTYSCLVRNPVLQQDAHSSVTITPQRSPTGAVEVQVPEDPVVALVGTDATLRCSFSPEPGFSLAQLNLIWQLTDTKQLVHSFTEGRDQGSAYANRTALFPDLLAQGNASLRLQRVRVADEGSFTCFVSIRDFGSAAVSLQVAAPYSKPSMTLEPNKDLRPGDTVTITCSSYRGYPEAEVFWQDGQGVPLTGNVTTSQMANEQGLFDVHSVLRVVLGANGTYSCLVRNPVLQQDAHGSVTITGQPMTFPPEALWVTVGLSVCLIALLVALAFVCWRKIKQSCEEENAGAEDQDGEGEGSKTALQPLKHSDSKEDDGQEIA
Put plainly: flow cytometry on A375 cells (B7H3+), anti-human Fc secondary. On the procedure:
(§1) Binding of exemplary multispecific constructs containing an antigen-binding domain directed against B7H3 were assessed for binding to B7H3 positive A375 tumor cells or primary T-cells. The constructs were generated containing antigen-binding domain(s) that were either sdAbs or a FABs, and that were positioned either only N-terminal to the Fc or both N-terminal to the Fc and C-terminal to the anti-CD3 binding domain (see FIGS. 30A and 30C and Table E5). Among the various formats of constructs tested included: sdAb-Fc-dsFV-sdAb (cx3072, cx5952) sdAb-Fc-FV (cx6079), sdAb-Fc-dsFV (cs6080, cx6081), MAB-FV (cx5067) and MAB-dsFV (cx6083, cx6084), where the FV represents the anti-CD3 binding domain composed of VH and VL domain pairs and “ds” notes disulfide stabilized via an engineered interdomain disulfide bond.
(§2) Binding was assessed as described above via flow cytometry using a fluorophore-conjugated anti-human Fc secondary antibody. cx3072 bound to A375 cells with high affinity (FIG. 31A) but not to isolated T-cells (FIG. 31B). […] The B7H3 -targeting sdAb containing constructs (cx5952, cx6079, cx6080, and cx6081) bound to B7H3 positive cells with similar affinities (depicted in FIG. 31E), with cx5952 displaying higher maximal binding. cx6079, cx6080 and cx6081 contain two identical B7H3-targeting sdAbs, whereas cx5952, and cx3072 contain two distinct B7H3-targeting sdAb that bind different epitopes. The MAB-FV, cx5067, contains two identical B7H3-targeting FAB domains.
Background: A flow cytometer gives signals particle by particle.

Experiment [2] concerns the target T2, CD3 on the surface of human T cells (human, UniProt P07766 23-207).
T2 construct: whole, on cells; Part of the CD3/TCR complex on cells; also called CD3 epsilon
Put plainly: flow cytometry on primary human T cells, anti-human Fc secondary. As for the experimental part: as §1, §2

Experiment [3] deals with T2, CD3 on the surface of human T cells. Put plainly: flow cytometry on isolated T cells, anti-human Fc secondary. On the procedure:
as §1, §2

T2 sequence (P07766 23-207): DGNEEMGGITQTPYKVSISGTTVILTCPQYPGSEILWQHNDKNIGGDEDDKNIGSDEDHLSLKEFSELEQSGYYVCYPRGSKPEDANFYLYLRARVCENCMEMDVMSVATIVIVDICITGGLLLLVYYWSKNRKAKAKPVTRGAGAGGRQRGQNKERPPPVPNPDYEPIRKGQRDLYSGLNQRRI

B1: cx5067 (bispecific antibody)
chain 1: EVQLVESGGGLVQPGGSLRLSCAASGFTFSSFGMHWVRQAPGKGLEWVAYISSDSSAIYYADTVKGRFTISRDNAKNSLYLQMNSLRDEDTAVYYCGRGRENIYYGSRLDYWGQGTTVTVSSASTKGPSVFPLAPSSKSTSGGTAALGCLVKDYFPEPVTVSWNSGALTSGVHTFPAVLQSSGLYSLSSVVTVPSSSLGTQTYICNVNHKPSNTKVDKKVEPKSCDKTHTCPPCPAPPVAGPSVFLFPPKPKDTLMISRTPEVTCVVVDVKHEDPEVKFNWYVDGVEVHNAKTKPREEEYNSTYRVVSVLTVLHQDWLNGKEYKCKVSNKALPAPIEKTISKAKGQPREPQVYTLPPSREEMTKNQVSLTCDVSGFYPSDIAVEWESDGQPENNYKTTPPVLDSDGSFFLYSKLTVDKSRWEQGDVFSCSVMHEALHNHYTQKSLSLSPGKGGGGSGGGGSGGGGSEVQLVESGGGLVQPGGSLRLSCAASGFTFSTYAMNWVRQAPGKGLEWVGRIRSKYNNYATYYADSVKGRFTISRDDSKNTLYLQMNSLRAEDTAVYYCVRHGNFGDSYVSWFAYWGQGTLVTVSS
chain 2: EVQLVESGGGLVQPGGSLRLSCAASGFTFSSFGMHWVRQAPGKGLEWVAYISSDSSAIYYADTVKGRFTISRDNAKNSLYLQMNSLRDEDTAVYYCGRGRENIYYGSRLDYWGQGTTVTVSSASTKGPSVFPLAPSSKSTSGGTAALGCLVKDYFPEPVTVSWNSGALTSGVHTFPAVLQSSGLYSLSSVVTVPSSSLGTQTYICNVNHKPSNTKVDKKVEPKSCDKTHTCPPCPAPPVAGPSVFLFPPKPKDTLMISRTPEVTCVVVDVKHEDPEVKFNWYVDGVEVHNAKTKPREEQYNSTYRVVSVLTVLHQDWLNGKEYKCKVSNKALPAPIEKTISKAKGQPREPQVYTLPPSREQMTKNQVKLTCLVKGFYPSDIAVEWESNGQPENNYKTTPPVLDSDGSFFLYSKLTVDKSRWQQGNVFSCSVMHEALHNHYTQKSLSLSPGKGGGGSGGGGSGGGGSQAVVTQEPSLTVSPGGTVTLTCGSSTGAVTTSNYANWVQQKPGKSPRGLIGGTNKRAPGVPARFSGSLLGGKAALTISGAQPEDEADYYCALWYSNHWVFGGGTKLTVL
light: DIQLTQSPSFLSASVGDRVTITCKASQNVDTNVAWYQQKPGKAPKALIYSASYRYSGVPSRFSGSGSGTDFTLTISSLQPEDFATYYCQQYNNYPFTFGQGTKLEIKRTVAAPSVFIFPPSDEQLKSGTASVVCLLNNFYPREAKVQWKVDNALQSGNSQESVTEQDSKDSTYSLSSTLTLSKADYEKHKVYACEVTHQGLSSPVTKSFNRGEC
notes: anti-CD3 Fv not disulfide-stabilized; also called MAB-FV
Consider B1, for which the binding result is given as “binds” in experiment [1] and “no binding” in experiment [2].

B2: cx6084 (bispecific antibody, human IgG1, kappa)
chain 1: B1 chain 1 with S496N, G510C, G515A, S543A, N552S, D572N, S590K, S591P
chain 2: B1 chain 2 with K510Q, S511A, P512F, G568C, T573E, V574I, L575K
light: B1 light
notes: disulfide-stabilized anti-CD3 Fv; also called MAB-dsFV
Turning to B2, the binding result in experiment [1] is “binds”; in experiment [2] it was “no binding”.

B3: cx6083 (bispecific antibody)
chain 1: B1 chain 1 with G510C
chain 2: B1 chain 2 with G568C
light: B1 light
notes: as for B2
For the molecule B3, the values for the binding result in experiment [1] and in experiment [2] were “binds” and “no binding”, respectively.

B4: cx5187 (bispecific antibody)
chain 1: EVQLVESGGGEVQPGGSLRLSCAASGFSFSSNVMMWVRQAPGKGLEWVSTIYSSGTGTFYAESVKGRFTISRDNAKNTLYLQMSSLRPEDTAVYYCATSGPVRGWGPRSQGTLVTVKPPGGGGDKTHTCPPCPAPGGPSVFLFPPKPKDTLMISRTPEVTCVVVDVSHEDPEVKFNWYVDGVEVHNAKTKPREEQYNSTYRVVSVLTVLHQDWLNGKEYKCKVSNKALPAPIEKTISKAKGQPREPQVYTLPPCRDELTKNQVSLWCLVKGFYPSDIAVEWESNGQPENNYKTTPPVLDSDGSFFLYSKLTVDKSRWQQGNVFSCSVMHEALHNHYTQKSLSLSPTGGGGGSGGGGGSGGGGGSEVQLVESGGGLVQPGGSLRLSCAASGFTFNTYAMNWVRQAPGKCLEWVARIRSKYNNYATYYADSVKGRFTISRDDAKNTLYLQMSSLRAEDTAVYYCVRHGNFGNSYVSWFAYWGQGTLVTVKPGGGGEVQLVESGGGEVQPGGSLRLSCAASGFTFSSYHMSWFRQAPGKQREPVATSHHGGTTNYAGSVKGRFTISRDNAKNTVYLQMNTLRAEDTAVYYCKADHGYQGRGYWGQGTLVTVKP
chain 2: DKTHTCPPCPAPGGPSVFLFPPKPKDTLMISRTPEVTCVVVDVSHEDPEVKFNWYVDGVEVHNAKTKPREEQYNSTYRVVSVLTVLHQDWLNGKEYKCKVSNKALPAPIEKTISKAKGQPREPQVCTLPPSRDELTKNQVSLSCAVKGFYPSDIAVEWESNGQPENNYKTTPPVLDSDGSFFLVSKLTVDKSRWQQGNVFSCSVMHEALHNRYTQKSLSLSPTGGGGGSGGGGGSGGGGGSQAVVTQEPSLTVSPGGTVTLTCGSSTGAVTTSNYANWVQQKPGQAFRGLIGGTNKRAPGVPARFSGSLLGGKAALTISGAQPEDEADYYCALWYSNHWVFGCGTKLEIKGGGGEVQLLESGGGEVQPGGSLRLSCAASGFSFSINAMGWYRQAPGKRREFVAAIESGRNTVYAESVKGRFTISRDNAKNTVYLQMSSLRAEDTAVYYCGLLKGNRVVSPSVAYWGQGTLVTVKP
B4: the binding result in experiment [1] is “binds”; in experiment [3] it was “no binding”.

B5: cx5873 (bispecific antibody)
chain 1: DKTHTCPPCPAPGGPSVFLFPPKPKDTLMISRTPEVTCVVVDVSHEDPEVKFNWYVDGVEVHNAKTKPREEQYNSTYRVVSVLTVLHQDWLNGKEYKCKVSNKALPAPIEKTISKAKGQPREPQVYTLPPCRDELTKNQVSLWCLVKGFYPSDIAVEWESNGQPENNYKTTPPVLDSDGSFFLYSKLTVDKSRWQQGNVFSCSVMHEALHNHYTQKSLSLSPTGGGGGSGGGGGSGGGGGSEVQLVESGGGLVQPGGSLRLSCAASGFTFNTYAMNWVRQAPGKCLEWVARIRSKYNNYATYYADSVKGRFTISRDDAKNTLYLQMSSLRAEDTAVYYCVRHGNFGNSYVSWFAYWGQGTLVTVKPGGGGEVQLVESGGGEVQPGGSLRLSCAASGFTFSSYHMSWFRQAPGKQREPVATSHHGGTTNYAGSVKGRFTISRDNAKNTVYLQMNTLRAEDTAVYYCKADHGYQGRGYWGQGTLVTVKP
chain 2: B4 chain 2
notes: first-named used
Turning to B5, the binding result in experiment [1] was “binds”; in experiment [3] it was “no binding”.

B6: cx5965 (bispecific antibody)
chain 1: EVQLVESGGGEVQPGGSLRLSCAASGFSFSSNVMMWVRQAPGKGLEWVSTIYSSGTGTFYAESVKGRFTISRDNAKNTLYLQMSSLRPEDTAVYYCATSGPVRGWGPRSQGTLVTVKPPGGGGDKTHTCPPCPAPGGPSVFLFPPKPKDTLMISRTPEVTCVVVDVSHEDPEVKFNWYVDGVEVHNAKTKPREEQYNSTYRVVSVLTVLHQDWLNGKEYKCKVSNKALPAPIEKTISKAKGQPREPQVYTLPPCRDELTKNQVSLWCLVKGFYPSDIAVEWESNGQPENNYKTTPPVLDSDGSFFLYSKLTVDKSRWQQGNVFSCSVMHEALHNHYTQKSLSLSPTGGGGGSGGGGGSGGGGGSEVQLVESGGGLVQPGGSLRLSCAASGFTFNTYAMNWVRQAPGKCLEWVARIRSKYNNYATYYADSVKGRFTISRDDAKNTLYLQMSSLRAEDTAVYYCVRHGNFGNSYVSWFAYWGQGTLVTVKP
chain 2: B4 chain 2
notes: first-named used
Take B6: the binding result in experiment [1] is listed as “binds”; in experiment [3], “no binding”.

B7: cx5823 (bispecific antibody)
chain 1: B4 chain 1 with T346G, P540L
chain 2: B4 chain 2 with T223G
Regarding B7, the binding result is “binds” in experiment [1] and “no binding” in experiment [3].
